This is an account of results in paper PMC11314421.

For this data set, the target named is ΔNCL (DelNucleolin) (UniProt P19338 284-710, del1-283). Put plainly: SPR. For orientation: SPR reads the build-up and loss of mass on a sensor chip optically.
ΔNCL (DelNucleolin), sequence (P19338 284-710, stated change not applied): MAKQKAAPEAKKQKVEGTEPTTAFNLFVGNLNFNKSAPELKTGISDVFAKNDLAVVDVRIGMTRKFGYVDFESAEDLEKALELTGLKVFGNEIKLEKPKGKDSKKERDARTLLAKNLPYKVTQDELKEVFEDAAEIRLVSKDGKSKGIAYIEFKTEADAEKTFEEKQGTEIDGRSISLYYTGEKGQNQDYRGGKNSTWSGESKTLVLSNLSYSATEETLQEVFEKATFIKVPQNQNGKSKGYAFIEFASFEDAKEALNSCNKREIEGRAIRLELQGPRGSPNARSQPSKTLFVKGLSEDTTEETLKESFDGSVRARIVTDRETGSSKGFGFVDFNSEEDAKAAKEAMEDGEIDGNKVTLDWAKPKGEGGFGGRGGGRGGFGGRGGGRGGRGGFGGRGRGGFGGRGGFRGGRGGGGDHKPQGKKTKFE

B1: Q3 (biotinylated, SPR) (structured_RNA)
RNA: CUCAAGCGGUGCUUGAAGGGGAGGGAAAGCGGGAAAGCGGGCAACCACUUUUCCCUAGC
B1 showed a Kd of 15 nM.

B2: Q2 (biotinylated, SPR) (structured_RNA)
RNA: UUUUUCCUGGAAUUUGGAGGGAUGGGAGGAGGGGGUGGGGCUUACUUGUUGUAGCUU
In the case of B2, the Kd was 4 nM.

Broadly, the Kd is the equilibrium constant for the complex coming apart. A low value points to a tighter complex.
